Laboratory results as given in doi:10.1101/2025.03.18.644018v1.

B1: NAD-ME1 + NAD-ME2.3 (Glycine max) (protein)
chain 1: PSIVHKRSLDILHDPWFNKGTAFSMTERDRLDLRGLLPPNVMSPDLQIERFMVDLKRLEVQARDGPSDPNALAKWRILNRLHDRNETMYYKVLIAKIEEYAPIVYTPTVGLVCQNYSGLFRRPRGMYFSAEDRGEMMSMVYNWPAEQVDMIVVTDGSRILGLGDLGVQGIGIAIGKLDLYVAAAGINPQRVLPVMIDVGTNNEKLLEDPLYLGLQQHRLDGDDYLAVVDEFMEAVFTRWPNVIVQFEDFQSKWAFKLLQRYRNTYRMFNDDVQGTAGVAIAGLLGAVRAQGRPLIDFPKQKIVVAGAGSAGIGVLNAARKTMARMLGNNEVAFESAKSQFWVVDAQGLITEGRENIDPDALPFARNLKEMDRQGLREGASLVEVVKQVKPDVLLGLSAVGGLFSKEVLEALKGSTSTRPAIFAMSNPTKNAECTAEEAFSILGDNIIFASGSPFSNVDLGNGHIGHCNQGNNMYLFPGIGLGTLLSGARIVSDGMLQAAAERLATYMSEEEVLKGIIFPSTSRIRDITKQVATAVIKEAVEEDLAEGYHGMDARELQKLSEDEIAEYVQNNMWSPEYPTLVYKKE
chain 2: CIVHKRGADILHDPWFNKDTGFPLTERDRLGLRGLLPPRVISFEQQYDRFMNSFRSLENNTQGQPDKVVSLAKWRILNRLHDRNETLYYRVLIDNIKEFAPIIYTPTVGLVCQNYSGLFRRPRGMYFSAKDKGEMMSMIYNWPAHEVDMIVLTDGSRILGLGDLGVQGIGIPIGKLDVYVAAAGINPQRILPVMLDVGTNNQKLLEDRLYLGLRQPRLEGEEYLSIVDEFMEAVHARWPKAIVQFEDFQMKWAFETLKRYQKRFCMFNDDIQGTAGVALAGILGTVRAQGRPLTDFVNQKIVVVGAGSAGLGVLKMAIQTVAKISGCSELAAKSQFYLIDKDGLVTTERNSLDPAAAPFAKNPRDIEGLTEGASIIEVVKKIRPHVLLGLSGVGGIFNEEVLKAMRESVSTKPAIFAMSNPTMNAECTSIDAFKHAGENIVFASGSPFENVDLGNGKVGHVNQANNMYLFPGIGLGTLLSGAHLITDGMLQAASECLASYMAEEDILKGILYPSVDSIRDVTAEVGAAVLRAAVEEELAEGHGDVGPKELSHMSKDEAVEYVRSNMWYPVYSPLVHEK
B2: NAD-ME1 + NAD-ME2.4 (Glycine max) (protein)
chain 1: B1 chain 1
chain 2: CIVHKRGADILHDPWFNKDTGFPLTERDRLGLRGLLPPRVISFEQQYDRFMNSFRSLENNTQGQPDKVVSLAKWRILNRLHDRNETLYYRVLIDNIKEFAPIIYTPTVGLVCQNYSGLFRRPRGMYFSAKDKGEMMSMIYNWPAHEVDMIVLTDGSRILGLGDLGVQGIGIPIGKLDVYVAAAGINPQRILPVMLDVGTNNQKLLEDRLYLGLRQPRLEGEEYLSIIDEFMEAVHARWPKAIVQFEDFQMKWAFETLKRYQKKFCMFNDDIQGTAGVALAGLLGTVRAQGRPLTDFVNQKIVVVGAGSAGLGVLKMAIQAVAKISGCSELAAKSQFYLIDKDGLVTTERNNLDPAAAPFAKNPRDIEGLTEGASIIEVVKKIRPHVLLGLSGVGGIFNEEVLKAMRESVSTKPAIFAMSNPTMNAECTAIDAFKHAGENMVFASGSPFENVDLGNGIVGHVNQANNMYLFPGIGLGTLLSGAHLITDGMLQAAAECLASYMAEEDILKGILYPSVDSIRDVTAEVGAAVLRAAVEEELAEGNGDVGPKELSHMSKDETVEYVRSNMWYPVYSPLVHEK
B3: NADP-ME1.1 (Glycine max) (protein)
chain: SMTPSSSSSSRSGDRNGSVVMETPLKELKKESTVADVDDNAISAGGPQDVYGEDRATEDHFVTPWSVSVASGYTLLRDPHFNKGLAFTEDERDAHYLRGLLPPSVIPQETQVKKMIQHVRQYQVPLQKYMAMMDLQERNERLFYKLLIDHVEELLPVVYTPTVGEACQKYGSIFMHPQGLYISLKEKGKIREVLRNWPEKNIQVIVVTDGERILGLGDLGCQGMGIPVGKLSLYTALGGVRPSACLPITIDVGTNNEKLLNDELYIGLKQRRATGQEYAELMHEFMTAVKQTYGEKVLIQFEDFANHNAFNLLEKYRSTHLVFNDDIQGTASVVLAGLVASLKLVGGNLADHRFLFLGAGEAGTGIAELIALETSKQTNAPLEEVRKNIWLVDSKGLIVSSRKDSLQHFKKPWAHEHEPVKNLLDAVNKIKPTVLIGTSGQGRTFTKEVIEAMASINKRPIILSLSNPTSQSECTAEEAYKWSQGRAIFASGSPFPPVEYEGKVFVPGQANNAYIFPGFGLGLIMSGTIRVHDDLLLAASEALAAQVSQENFDKGLIYPPFTNIRKISAHIAANVAAKAYELGLATRLPQPKDLVKFAESCMYTPAYRSYR

Legend:
purified protein [1] = substrate: O=C(O)C[C@H](O)C(=O)O; experiment: purified protein; conditions: equimolar mixture, forward, saturating NAD, MnCl2, pH 6.5, 30°C
purified protein [2] = substrate: CC(=O)C(=O)O; experiment: purified protein; type: biochemical, Glycine max; conditions: reverse reaction, NaHCO3, NADPH, MgCl2, pH 6.5, 30°C

Protein | K0.5 (purified protein [1]) [mM] | kcat (purified protein [1]) [s⁻¹] | K0.5 (purified protein [2]) [mM] | kcat (purified protein [2]) [s⁻¹]
B1 | 0.2 ± 0.1 | 338.3 ± 15.8 |  | 
B2 | 0.6 ± 0.2 | 393.6 ± 63.8 |  | 
B3 |  |  | 5.1 ± 0.5 | 202.4 ± 6.9
